According to patent publication US20110207628A1:

Key:
[1] = molecular target: tubby-N (N-terminus of mouse tubby, 1M-242P), GST-free (mouse) (UniProt P50586); experiment: clonal phage on immobilized tubby-N, plaque assay
[2] = molecular target: FLAG-tubby-F (full-length mouse tubby with N-terminal FLAG tag) (mouse) (UniProt P50586); experiment: clonal phage on immobilized FLAG-tubby-F, plaque assay
FLAG-tubby-F (full-length mouse tubby with N-terminal FLAG tag) (mouse), sequence (P50586 other isoform, or with tags, fused parts or gaps): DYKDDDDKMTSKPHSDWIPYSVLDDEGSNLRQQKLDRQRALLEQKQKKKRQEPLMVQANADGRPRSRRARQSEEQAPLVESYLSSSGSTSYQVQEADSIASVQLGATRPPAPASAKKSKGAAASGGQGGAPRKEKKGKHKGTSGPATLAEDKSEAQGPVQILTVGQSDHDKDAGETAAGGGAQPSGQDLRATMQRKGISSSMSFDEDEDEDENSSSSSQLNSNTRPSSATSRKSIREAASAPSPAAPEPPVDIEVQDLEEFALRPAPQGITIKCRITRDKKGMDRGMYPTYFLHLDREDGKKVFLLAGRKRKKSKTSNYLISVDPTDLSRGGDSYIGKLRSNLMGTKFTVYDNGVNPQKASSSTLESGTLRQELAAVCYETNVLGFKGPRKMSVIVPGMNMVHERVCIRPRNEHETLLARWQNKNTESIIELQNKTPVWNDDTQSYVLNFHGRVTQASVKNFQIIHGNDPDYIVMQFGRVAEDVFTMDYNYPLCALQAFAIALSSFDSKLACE

tubby-N (N-terminus of mouse tubby, 1M-242P), GST-free (mouse), sequence (P50586 1-242): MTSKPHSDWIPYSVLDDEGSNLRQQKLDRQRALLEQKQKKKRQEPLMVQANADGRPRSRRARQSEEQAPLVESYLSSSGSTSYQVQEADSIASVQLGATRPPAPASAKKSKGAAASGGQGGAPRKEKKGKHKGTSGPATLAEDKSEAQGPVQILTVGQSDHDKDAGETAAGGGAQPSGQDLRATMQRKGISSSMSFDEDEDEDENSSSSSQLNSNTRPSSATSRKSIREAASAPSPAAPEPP

B1: Regulated endocrine-specific protein 18 (Resp18) 68V-134K, phage clone (protein, mouse, UniProt P47939 68-134, looked up)
chain: VPEGMFWADDIAYELMTKKVEHLSRLHPQYPCRKDMKAVSPTANAGVRSKQEEKLQLLSPQKSPTVK
What does the source list for B1?
Binding to tubby-N (binding specificity of clonal phage vs. control phage) [1]: 10.3 X (fold); Binding to tubby-F (binding specificity to FLAG-tubby-F vs. to GFP-FLAG) [2]: 4.8 X (fold)
